Measurements published in patent US11478551B2, “Long-acting adrenomedullin derivative” (University of Miyazaki, priority 2015, dated 2022).
Marks after values point to notes of the source that are not given here. Positions of bridges follow the written chain, without caps; N, C: chain ends. GL‑2‑branched CH3O‑PEG (40k)‑CH2 = glycerol skeleton-containing 2-branched methoxy-PEG (40 kDa) attached via alkylamine (CH2) linkage; GL‑2‑branched CH3O‑PEG (40k)‑CO = glycerol skeleton-containing 2-branched methoxy-PEG (40 kDa) attached via urethane (CO) linkage

Biological target: T1, AM receptor (Homo sapiens, UniProt O60895+Q16602)
T1 construct: expressed in transfected cells; host or cells: HEK293 cell line
Experiment: Intracellular cAMP concentration-increasing effect in HEK293 cell line caused to express an AM receptor;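 note: cAMP inside confluent receptor-expressing cells quantified by ELISA after 15 min exposure to each peptide at 10^−8 mol/L alongside 0.5 mM IBMX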
Assay type: cell-based
Settings: for Intracellular cAMP concentration-increasing effect (%): 10^−8 mol/L, 15 minutes, 0.5 mM IBMX; for influence of N-terminal deletion of the peptide moiety on the intracellular cAMP concentration-increasing effect: in words

[1] = percentage with respect to h.AM (1-52)
[2] = percentage with respect to h.AM (6-52)
[3] = percentage with respect to h.AM (16-52)

T1 sequence (Q16602 23-461): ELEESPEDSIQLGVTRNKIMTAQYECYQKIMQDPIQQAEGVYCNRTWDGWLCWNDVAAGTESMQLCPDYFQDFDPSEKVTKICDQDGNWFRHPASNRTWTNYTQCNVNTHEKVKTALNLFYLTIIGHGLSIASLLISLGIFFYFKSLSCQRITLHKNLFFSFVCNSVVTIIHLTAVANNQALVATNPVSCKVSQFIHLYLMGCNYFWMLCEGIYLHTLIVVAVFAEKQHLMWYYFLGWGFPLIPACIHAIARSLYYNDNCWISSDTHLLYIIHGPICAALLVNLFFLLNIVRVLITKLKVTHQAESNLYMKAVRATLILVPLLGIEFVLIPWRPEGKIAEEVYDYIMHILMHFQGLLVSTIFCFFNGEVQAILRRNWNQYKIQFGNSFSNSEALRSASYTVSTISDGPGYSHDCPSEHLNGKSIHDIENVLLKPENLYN
T1 sequence (O60895 43-175): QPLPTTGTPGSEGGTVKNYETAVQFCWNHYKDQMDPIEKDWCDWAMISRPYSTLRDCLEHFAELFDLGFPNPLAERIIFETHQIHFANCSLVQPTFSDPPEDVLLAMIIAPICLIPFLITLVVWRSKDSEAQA

| Substance | influence of N-terminal deletion of the peptide moiety on the intracellular cAMP concentration-increasing effect | Intracellular cAMP concentration-increasing effect (%) [1] [%] | other results |
| --- | --- | --- | --- |
| CH3O-PEG (5k)-(CH2)5-CO-^αNH-(h.AM (11-52)) ({CH3O‑PEG (5k)‑(CH2)5‑CO}-LRSFGCRFGTCTVQKLAHQIYQFTDKDKDNVAPRSKISPQGY-NH2; disulfide 6-11 (inferred); ends not checked) [Compound (16), amide linkage-type PEG (5k) adrenomedullin derivative, reference compound] | significantly decreased | – | Intracellular cAMP concentration-increasing effect (%) (percentage with respect to h.AM (11-52)): 1**^) % |
| GL-4-branched CH3O-PEG (40k)-CO-^αNH-(h.AM (6-52)) ({GL‑4‑branched CH3O‑PEG (40k)‑CO}-NNFQGLRSFGCRFGTCTVQKLAHQIYQFTDKDKDNVAPRSKISPQGY-NH2; disulfide 11-16 (inferred); ends not checked) [Compound (34)] | – | 83 | – |
| GL-2-branched CH3O-PEG (40k)-CO-^αNH-(h.AM (16-52)) ({GL‑2‑branched CH3O‑PEG (40k)‑CO}-CRFGTCTVQKLAHQIYQFTDKDKDNVAPRSKISPQGY-NH2; disulfide 1-6 (inferred); ends not checked) [Compound (33)] | – | 61 | – |
| CH3O-PEG (20k)-(CH2)2—CH2-^αNH-(h.AM (6-52)) ({CH3O‑PEG (20k)‑(CH2)2—CH2}-NNFQGLRSFGCRFGTCTVQKLAHQIYQFTDKDKDNVAPRSKISPQGY-NH2; disulfide 11-16 (inferred); ends not checked) [Compound (21)] | high intracellular cAMP concentration-increasing effect without the influence of the N-terminal deletion | – | Intracellular cAMP concentration-increasing effect (%) [2]: 98*^) % |
| CH3O-PEG (5k)-(CH2)2—CH2-^αNH-(h.AM (11-52)) ({CH3O‑PEG (5k)‑(CH2)2—CH2}-LRSFGCRFGTCTVQKLAHQIYQFTDKDKDNVAPRSKISPQGY-NH2; disulfide 6-11 (inferred); ends not checked) [Compound (19)] | suppressed the influence of N-terminal deletion | 80 | – |
| GL-2-branched CH3O-PEG (40k)-CH2-^αNH-(h.AM (6-52)) ({GL‑2‑branched CH3O‑PEG (40k)‑CH2}-NNFQGLRSFGCRFGTCTVQKLAHQIYQFTDKDKDNVAPRSKISPQGY-NH2; disulfide 11-16 (inferred); ends not checked) [Compound (29)] | – | 77 | – |
| GL-2-branched CH3O-PEG (40k)-CH2-^αNH-(h.AM (1-52)-Gly) [Compound (36)] | – | – | Intracellular cAMP concentration-increasing effect (%) (percentage with respect to h.AM (1-52)-Gly): 96****^) % |
| CH3O-PEG (5k)-(CH2)2—CH2-^αNH-(h.AM (6-52)) ({CH3O‑PEG (5k)‑(CH2)2—CH2}-NNFQGLRSFGCRFGTCTVQKLAHQIYQFTDKDKDNVAPRSKISPQGY-NH2; disulfide 11-16 (inferred); ends not checked) [Compound (18)] | suppressed the influence of N-terminal deletion | 90 | – |
| CH3O-PEG (20k)-(CH2)2—CH2-^αNH-(h.AM (11-52)) ({CH3O‑PEG (20k)‑(CH2)2—CH2}-LRSFGCRFGTCTVQKLAHQIYQFTDKDKDNVAPRSKISPQGY-NH2; disulfide 6-11 (inferred); ends not checked) [Compound (22)] | high intracellular cAMP concentration-increasing effect without the influence of the N-terminal deletion | 97 | – |
| GL-2-branched CH3O-PEG (20k)-CO-^αNH-(h.AM (11-52)) ({GL‑2‑branched CH3O‑PEG (20k)‑CO}-LRSFGCRFGTCTVQKLAHQIYQFTDKDKDNVAPRSKISPQGY-NH2; disulfide 6-11 (inferred); ends not checked) [Compound (31)] | – | 104 | – |
| CH3O-PEG (5k)-(CH2)5—CO-^αNH-(h.AM (16-52)) ({CH3O‑PEG (5k)‑(CH2)5—CO}-CRFGTCTVQKLAHQIYQFTDKDKDNVAPRSKISPQGY-NH2; disulfide 1-6 (inferred); ends not checked) [Compound (17), amide linkage-type PEG (5k) adrenomedullin derivative, reference compound] | significantly decreased | – | Intracellular cAMP concentration-increasing effect (%) [3]: 9***^) % |
| CH3O-PEG (5k)-(CH2)2—CH2-^αNH-(h.AM (16-52)) ({CH3O‑PEG (5k)‑(CH2)2—CH2}-CRFGTCTVQKLAHQIYQFTDKDKDNVAPRSKISPQGY-NH2; disulfide 1-6 (inferred); ends not checked) [Compound (20)] | suppressed the influence of N-terminal deletion | 39 | – |
| CH3O-PEG (5k)-(CH2)5—CO-^αNH-(h.AM (6-52)) ({CH3O‑PEG (5k)‑(CH2)5—CO}-NNFQGLRSFGCRFGTCTVQKLAHQIYQFTDKDKDNVAPRSKISPQGY-NH2; disulfide 11-16 (inferred); ends not checked) [Compound (15), amide linkage-type PEG (5k) adrenomedullin derivative, reference compound] | significantly decreased | – | Intracellular cAMP concentration-increasing effect (%) [2]: 101*^) % |
| CH3O-PEG (20k)-(CH2)2—CH2-^αNH-(h.AM (16-52)) ({CH3O‑PEG (20k)‑(CH2)2—CH2}-CRFGTCTVQKLAHQIYQFTDKDKDNVAPRSKISPQGY-NH2; disulfide 1-6 (inferred); ends not checked) [Compound (23)] | high intracellular cAMP concentration-increasing effect without the influence of the N-terminal deletion | 97 | – |
| GL-2-branched CH3O-PEG (20k)-CO-^αNH-(h.AM (6-52)) ({GL‑2‑branched CH3O‑PEG (20k)‑CO}-NNFQGLRSFGCRFGTCTVQKLAHQIYQFTDKDKDNVAPRSKISPQGY-NH2; disulfide 11-16 (inferred); ends not checked) [Compound (30)] | – | 99 | – |
| GL-2-branched CH3O-PEG (40k)-CH2-^αNH-(h.AM (16-52)) ({GL‑2‑branched CH3O‑PEG (40k)‑CH2}-CRFGTCTVQKLAHQIYQFTDKDKDNVAPRSKISPQGY-NH2; disulfide 1-6 (inferred); ends not checked) [Compound (24)] | – | – | Intracellular cAMP concentration-increasing effect (%) [3]: 93***^) % |
| GL-2-branched CH3O-PEG (20k)-CO-^αNH-(h.AM (16-52)) ({GL‑2‑branched CH3O‑PEG (20k)‑CO}-CRFGTCTVQKLAHQIYQFTDKDKDNVAPRSKISPQGY-NH2; disulfide 1-6 (inferred); ends not checked) [Compound (32)] | – | 96 | – |
